# Data as given in patent US20230331827A1, “POTASSIUM CHANNEL INHIBITORS” (priority 2017, published 2023).
# Where two headings read alike, the source gives them in different places.
# B1: KB_A12_ShK: ShK toxin in VL CDR2 of KB_A12, IgG1 (antibody, V domains shown)
# VH: EVQLVESGGGLVRPGGSLRLSCAASGFTFSSYAMSWVRQAPGKGLEWVSAISGSGGSTYYADSVKGRFTISRDNTKNSLYLQMTSLRADDTAFYYCVKDFGPGYGTGWFDYWGPGTLVTVSS
# VL: QSVLTQPPSVSEAPRQRVTITCSGSSSNIGNNAVNWYQQLPGKAPKLLIYAAGRRSCIDTIPKSRCTAFQCKHSMKYRLSFCRKTCGTCANSGVSDRFSAAKSGTSASLAINGLRSEDEADYYCAAWDDSLNGYVFGTGTKLTVLG
# B2: KB_A12: EETI-II knottin fused into VL CDR2, D1A12 VH; parental KnotBody, isotype control (antibody, V domains shown)
# VH: B1 VH
# VL: QSVLTQPPSVSEAPRQRVTITCSGSSSNIGNNAVNWYQQLPGKAPKLLIYAAGRCPRILMRCKQDSDCLAGCVCGPNGFCGANSGVSDRFSAAKSGTSASLAINGLRSEDEADYYCAAWDDSLNGYVFGTGTKLTVLGQP
# What was measured:
# [1] = target: T1, human Kv1.3 (huKv1.3) (Homo sapiens, UniProt P22001); experiment: QPatch automated patch-clamp, CHO cells stably expressing human Kv1.3 (Examples 19-21); type: cell-based
# T1 construct: host or cells: CHO
# Summary of the method: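 Whole-cell currents were recorded in extracellular solution of 145 mM NaCl, 4 mM KCl, 2 mM CaCl2, 1 mM MgCl2, 10 mM HEPES, 10 mM glucose (pH 7.4), with a KF/KCl/EGTA pipette solution (pH 7.2). From -80 mV, +30 mV pulses of 300 ms were applied every 10 s, with four ascending KnotBody concentrations added extracellularly. Peak outward current was averaged (n = 3-6) and IC50 fitted from concentration-response curves.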
# [2] = tested on: in vitro rat BBB model; experiment: In vitro rat BBB model transcytosis, sandwich ELISA of Fab in lower chamber; type: in vitro ADME; settings: test Fabs as oligoclonal mixes of 3 per well at 2 µM, controls 1 µM, value is per well
# Description: In order to assess the ability of these KnotBodies to cross the BBB, a ready to use in vitro rat BBB model system (Pharmacocell, Cat. No. RBT-24H) was used. In this model system rat brain endothelial cells were co-cultured with pericytes and astrocytes to mimic the in vivo BBB anatomy (Nakagawa, S. et al. (2009) Neurochem. Int. 54, 253-263). The in vitro rat BBB kit was cultured according to manufacturer’s instructions and transendothelial electrical resistance (TEER) was measured prior to testing of KnotBodies to verify the integrity of the barrier. […] 21 KnotBody Fabs were tested for their ability to cross the in vitro BBB model system. […] The parent KnotBody KB_A12 was used as a negative control. Both positive and negative controls were expressed and purified in the Fab format as described above. […] The concentration of transcytosed Fabs in the lower chamber (referred as brain side) was determined using a sandwich ELISA. In this ELISA, Fabs were captured using an anti-CH1 antibody (provided by Hybridoma Reagent Laboratories) and detected using rabbit anti-human IgG Kappa light chain antibody (Abcam, Cat. No. ab195576) or anti-human IgG Lambda light chain antibody (Abcam, Cat. No. ab124719) followed by europium conjugated anti-rabbit antibody (Perkin Elmer, Cat. No. AD0105). […]
# T1 sequence (P22001 whole entry): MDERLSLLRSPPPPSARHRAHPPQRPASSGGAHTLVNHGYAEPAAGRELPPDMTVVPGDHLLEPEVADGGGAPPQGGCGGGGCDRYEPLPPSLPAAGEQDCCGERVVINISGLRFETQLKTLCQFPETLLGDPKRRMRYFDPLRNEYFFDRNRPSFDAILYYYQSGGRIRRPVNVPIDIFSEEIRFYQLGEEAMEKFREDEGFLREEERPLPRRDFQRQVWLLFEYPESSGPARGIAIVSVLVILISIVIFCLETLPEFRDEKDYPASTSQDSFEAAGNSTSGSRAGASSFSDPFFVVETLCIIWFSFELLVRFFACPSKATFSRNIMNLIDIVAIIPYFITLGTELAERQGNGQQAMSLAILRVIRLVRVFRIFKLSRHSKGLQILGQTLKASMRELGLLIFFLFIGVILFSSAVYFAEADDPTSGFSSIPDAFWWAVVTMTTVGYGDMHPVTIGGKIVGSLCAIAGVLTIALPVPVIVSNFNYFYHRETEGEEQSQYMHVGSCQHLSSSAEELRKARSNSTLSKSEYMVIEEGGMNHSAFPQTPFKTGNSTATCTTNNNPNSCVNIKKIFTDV
Molecule,"Fold difference ([1]; Kv1.1 IC50 over Kv1.3 IC50, Table E20)","IC50 ([1]; four-point curves of FIG. 33, Table E20, read-out: Kv1.3 IC50) [nM]","IC50 ([1]; huKv1.3, four-point curves of FIG. 32, Table E19, read-out: IC50) [nM]",% transcytosis after 6h [2] [%]
B1,3,13,8.6,
B2,,,,0.1
